Tests used:
FoxP3ΔN = target: T1, FoxP3ΔN (Mus musculus, UniProt Q99JB6 188-423); test: EMSA; up to 0.8 uM; nearly undetectable; EMSA: 0.2 uM DNA, 20 mM Tris pH 7.5, 150 mM NaCl, 1.5 mM MgCl2, 2 mM DTT, 30 min at 4 C; anti-HA bead DNA pull-down: 20 min at room temperature; the EMSA IR-FKHM4g length is taken as 31 bp; conditions: protein: recombinant; tags: His6-NusA cleaved (HRV3C); chain copies: 2; blunt
T1 sequence: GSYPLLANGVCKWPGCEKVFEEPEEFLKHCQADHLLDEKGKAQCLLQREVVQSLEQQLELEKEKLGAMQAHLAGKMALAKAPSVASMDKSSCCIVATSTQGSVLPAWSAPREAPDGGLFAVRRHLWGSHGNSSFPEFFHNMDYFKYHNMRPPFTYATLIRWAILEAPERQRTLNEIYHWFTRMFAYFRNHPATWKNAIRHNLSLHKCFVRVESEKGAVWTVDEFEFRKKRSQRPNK

NusA-FoxP2RBR-forkhead = target: T2, NusA-FoxP2RBR-forkhead (Mus musculus, UniProt P58463 447-588); test: EMSA; equal to IR-FKHM4g; EMSA: 0.2 uM DNA, 20 mM Tris pH 7.5, 150 mM NaCl, 1.5 mM MgCl2, 2 mM DTT, 30 min at 4 C; anti-HA bead DNA pull-down: 20 min at room temperature; the EMSA IR-FKHM4g length is taken as 31 bp; conditions: protein: recombinant; tags: His6-NusA; blunt
T2 sequence: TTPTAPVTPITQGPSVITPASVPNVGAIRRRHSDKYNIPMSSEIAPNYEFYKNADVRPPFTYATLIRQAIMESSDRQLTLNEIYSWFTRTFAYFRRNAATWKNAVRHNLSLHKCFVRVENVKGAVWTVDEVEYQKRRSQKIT

NusA-FoxP1RBR-forkhead = target: T3, NusA-FoxP1RBR-forkhead (Mus musculus, UniProt P58462 433-579); test: as above; conditions: protein: recombinant; tags: His6-NusA; blunt
T3 sequence: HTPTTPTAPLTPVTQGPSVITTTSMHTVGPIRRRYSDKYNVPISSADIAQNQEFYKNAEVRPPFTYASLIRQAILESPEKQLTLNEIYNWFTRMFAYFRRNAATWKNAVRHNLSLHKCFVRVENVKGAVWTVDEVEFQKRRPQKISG

NusA-FoxP4RBR-forkhead = target: T4, NusA-FoxP4RBR-forkhead (Mus musculus, UniProt Q9DBY0 418-577); test: as above; conditions: protein: recombinant; tags: His6-NusA; blunt
T4 sequence: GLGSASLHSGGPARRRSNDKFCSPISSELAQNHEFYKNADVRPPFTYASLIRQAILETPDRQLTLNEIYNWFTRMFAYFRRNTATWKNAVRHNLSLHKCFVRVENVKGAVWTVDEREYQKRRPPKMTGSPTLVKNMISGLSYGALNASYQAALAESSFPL

FoxP3ΔN;NFAT1 (394-680) [1] = target: T5, FoxP3ΔN;NFAT1 (394-680) (Mus musculus;Mus musculus, UniProt Q99JB6;Q60591 188-423;394-680, |); test: restriction enzyme protection; 1.6 uM FoxP3, 0.4 uM NFAT; XhoI and BamHI protected, EcoRI accessible; EMSA: 0.2 uM DNA, 20 mM Tris pH 7.5, 150 mM NaCl, 1.5 mM MgCl2, 2 mM DTT, 30 min at 4 C; anti-HA bead DNA pull-down: 20 min at room temperature; the EMSA IR-FKHM4g length is taken as 31 bp; conditions: protein: recombinant;recombinant; tags: His6-NusA cleaved (HRV3C);His6-NusA cleaved; blunt
T5 sequence 1: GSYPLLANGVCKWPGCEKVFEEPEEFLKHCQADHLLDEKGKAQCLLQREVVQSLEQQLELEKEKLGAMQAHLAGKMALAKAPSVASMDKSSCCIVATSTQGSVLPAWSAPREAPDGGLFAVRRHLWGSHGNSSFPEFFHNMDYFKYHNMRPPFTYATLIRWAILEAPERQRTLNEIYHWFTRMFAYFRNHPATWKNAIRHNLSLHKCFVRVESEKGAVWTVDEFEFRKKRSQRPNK
T5 sequence 2: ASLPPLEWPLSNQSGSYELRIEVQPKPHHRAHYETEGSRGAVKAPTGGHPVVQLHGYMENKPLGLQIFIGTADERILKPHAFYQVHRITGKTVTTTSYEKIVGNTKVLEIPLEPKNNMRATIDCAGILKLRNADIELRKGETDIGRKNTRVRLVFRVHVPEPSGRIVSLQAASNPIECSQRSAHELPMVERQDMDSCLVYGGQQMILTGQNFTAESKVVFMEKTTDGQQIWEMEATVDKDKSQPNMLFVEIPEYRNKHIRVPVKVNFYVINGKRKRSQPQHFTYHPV

FoxP3ΔN;NFAT1 (394-680) [2] = target: T5, FoxP3ΔN;NFAT1 (394-680); test: restriction enzyme protection; 3.2 uM FoxP3, 0.4 uM NFAT; XhoI protected, BamHI accessible; EMSA: 0.2 uM DNA, 20 mM Tris pH 7.5, 150 mM NaCl, 1.5 mM MgCl2, 2 mM DTT, 30 min at 4 C; anti-HA bead DNA pull-down: 20 min at room temperature; the EMSA IR-FKHM4g length is taken as 31 bp; conditions: protein: recombinant;recombinant; tags: His6-NusA cleaved (HRV3C);His6-NusA cleaved; blunt
MBP-FoxP3ΔN [3] = target: T6, MBP-FoxP3ΔN (Mus musculus, UniProt Q99JB6 188-423); test: MBP pull-down; EMSA: 0.2 uM DNA, 20 mM Tris pH 7.5, 150 mM NaCl, 1.5 mM MgCl2, 2 mM DTT, 30 min at 4 C; anti-HA bead DNA pull-down: 20 min at room temperature; the EMSA IR-FKHM4g length is taken as 31 bp; conditions: protein: recombinant; tags: His6-MBP; blunt
T6 sequence: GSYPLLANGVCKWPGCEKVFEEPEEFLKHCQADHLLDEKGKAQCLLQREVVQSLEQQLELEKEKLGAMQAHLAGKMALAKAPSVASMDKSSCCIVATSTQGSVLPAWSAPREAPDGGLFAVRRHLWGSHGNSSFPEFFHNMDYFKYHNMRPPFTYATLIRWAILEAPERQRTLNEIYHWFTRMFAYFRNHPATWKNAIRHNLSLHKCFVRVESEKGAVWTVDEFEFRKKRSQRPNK

MBP-FoxP3ΔN [4] = target: T6, MBP-FoxP3ΔN; test: MBP pull-down; not efficiently bound; EMSA: 0.2 uM DNA, 20 mM Tris pH 7.5, 150 mM NaCl, 1.5 mM MgCl2, 2 mM DTT, 30 min at 4 C; anti-HA bead DNA pull-down: 20 min at room temperature; the EMSA IR-FKHM4g length is taken as 31 bp; conditions: protein: recombinant; tags: His6-MBP; blunt
MBP-FoxP3ΔN [5] = target: T6, MBP-FoxP3ΔN; test: MBP pull-down; strong; EMSA: 0.2 uM DNA, 20 mM Tris pH 7.5, 150 mM NaCl, 1.5 mM MgCl2, 2 mM DTT, 30 min at 4 C; anti-HA bead DNA pull-down: 20 min at room temperature; the EMSA IR-FKHM4g length is taken as 31 bp; conditions: protein: recombinant; tags: His6-MBP; blunt

B1: sFKHM (22bp) (dsDNA)
DNA 1: TTAGGAAAATTTGTTTACTCGA
DNA 2: TCGAGTAAACAAATTTTCCTAA
B1: no binding (FoxP3ΔN).

B2: sFKHM (31bp) (dsDNA)
DNA 1: TTAGGAAAATTTGTTTACTCGACGCGGCAAA
DNA 2: TTTGCCGCGTCGAGTAAACAAATTTTCCTAA
B2: binds (NusA-FoxP2RBR-forkhead); binds (NusA-FoxP1RBR-forkhead); binds (NusA-FoxP4RBR-forkhead). B2: no binding (FoxP3ΔN).

B3: IR-FKHM4g (47bp) (dsDNA)
DNA 1: TTAGGAAAATTTGTTTACTCGAGTAAACAGTGGATCCGAATTCATAT
DNA 2: ATATGAATTCGGATCCACTGTTTACTCGAGTAAACAAATTTTCCTAA
B3: binds (FoxP3ΔN;NFAT1 (394-680) [1]).

B4: IR-FKHM11g (54bp) (dsDNA)
DNA 1: TTAGGAAAATTTGTTTACTCGAGTGTACGGTAAACAGTGGATCCGAATTCATAT
DNA 2: ATATGAATTCGGATCCACTGTTTACCGTACACTCGAGTAAACAAATTTTCCTAA
B4: binds (FoxP3ΔN;NFAT1 (394-680) [2]).

B5: FKHM-seq1 (dsDNA)
DNA 1: ATTTGTTTACTCGAGACGCGAAAT
DNA 2: ATTTCGCGTCTCGAGTAAACAAAT
B5: binds (MBP-FoxP3ΔN [3]).

B6: FKHM-seq2 (dsDNA)
DNA 1: ATTTGTTTACTCGAGACGCAAAAT
DNA 2: ATTTTGCGTCTCGAGTAAACAAAT
B6: binds (MBP-FoxP3ΔN [3]).

B7: FKHM-seq3 (dsDNA)
DNA 1: ATTTGTTTACTCGAGATGCATCAT
DNA 2: ATGATGCATCTCGAGTAAACAAAT
B7: binds (MBP-FoxP3ΔN [3]).

B8: IR-seq1 (dsDNA)
DNA 1: ATTTCGCGTCTCGAGACGCGAAAT
DNA 2: ATTTCGCGTCTCGAGACGCGAAAT
B8: no binding (MBP-FoxP3ΔN [3]).

B9: IR-seq2 (dsDNA)
DNA 1: ATTTTGCGTCTCGAGACGCAAAAT
DNA 2: ATTTTGCGTCTCGAGACGCAAAAT
B9: no binding (MBP-FoxP3ΔN [3]).

B10: IR-seq3 (dsDNA)
DNA 1: ATGATGCATCTCGAGATGCATCAT
DNA 2: ATGATGCATCTCGAGATGCATCAT
B10: no binding (MBP-FoxP3ΔN [3]).

B11: FKHM-seq5 (dsDNA)
DNA 1: TTAGGAAAATTTGTTTACTCGAAATGCAAAA
DNA 2: TTTTGCATTTCGAGTAAACAAATTTTCCTAA
B11: binds (MBP-FoxP3ΔN [3]).

B12: FKHM-seq8 (dsDNA)
DNA 1: TTAGGAAAATTTGTTTACTCGAGGAAACAAA
DNA 2: TTTGTTTCCTCGAGTAAACAAATTTTCCTAA
B12: binds (MBP-FoxP3ΔN [3]).

B13: FKHM-seq9 (dsDNA)
DNA 1: TTAGGAAAATTTGTTTACTCGATAAAACAAA
DNA 2: TTTGTTTTATCGAGTAAACAAATTTTCCTAA
B13: binds (MBP-FoxP3ΔN [3]).

B14: FKHM-seq11 (dsDNA)
DNA 1: TTAGGAAAATTTGTTTACTCGATTAAACAAA
DNA 2: TTTGTTTAATCGAGTAAACAAATTTTCCTAA
B14: binds (MBP-FoxP3ΔN [3]).

B15: IR-seq5 (dsDNA)
DNA 1: TTAGGAAAATTTTGCATTTCGAAATGCAAAA
DNA 2: TTTTGCATTTCGAAATGCAAAATTTTCCTAA
B15: no binding (MBP-FoxP3ΔN [4]).

B16: IR-seq8 (dsDNA)
DNA 1: TTAGGAAAATTTGTTTCCTCGAGGAAACAAA
DNA 2: TTTGTTTCCTCGAGGAAACAAATTTTCCTAA
B16: no binding (MBP-FoxP3ΔN [4]).

B17: IR-seq9 (dsDNA)
DNA 1: TTAGGAAAATTTGTTTTATCGATAAAACAAA
DNA 2: TTTGTTTTATCGATAAAACAAATTTTCCTAA
B17: no binding (MBP-FoxP3ΔN [4]).

B18: IR-seq11 (dsDNA)
DNA 1: TTAGGAAAATTTGTTTAATCGATTAAACAAA
DNA 2: TTTGTTTAATCGATTAAACAAATTTTCCTAA
B18: no binding (MBP-FoxP3ΔN [4]).

B19: Major FKHM-seq5 (dsDNA)
DNA 1: AAATGTTTACTAGGAATGCAATGA
DNA 2: TCATTGCATTCCTAGTAAACATTT
B19: binds (MBP-FoxP3ΔN [3]).

B20: Major seq8-seq9 (dsDNA)
DNA 1: GTTTGTTTCCCAGGTAAAACAACC
DNA 2: GGTTGTTTTACCTGGGAAACAAAC
B20: binds (MBP-FoxP3ΔN [5]).

Source: article doi:10.1101/2022.02.08.479534, “FoxP3 can fold into two distinct dimerization states with divergent functional implications for T cell homeostasis”
